# Measured values from PMC4117778.
# Molecular target: human DNA polymerase beta (polβ) (Homo sapiens, UniProt P06746 1-335)
# Assay: X-ray crystallography; gapped binary complex, no incoming nucleotide; open conformation; 2.4 Å; Crystallization conditions not in material; kinetics (turnover only, not listed): 50 mM Tris-HCl pH 7.5, 5 mM MgCl2, 100 mM KCl, 80 nM DNA, 37°C
binder,measurement,value
"single-nucleotide gapped DNA with templating Fm7dG (crystal) (dsDNA, template G6 = 2'-fluoro-N7-methyl-2'-deoxyguanosine (Fm7dG); 5'-phosphate on downstream primer GTCGG) DNA 1: CCGACGTCGCATCAGC DNA 2: GCTGATGCGA DNA 3: GTCGG",binding result,binds
